Assay results: US20240124607A1 (Merck Sharp & Dohme, published 2024)

T1: human CEACAM5 on cells (human, UniProt P06731 35-685)
T1 sequence: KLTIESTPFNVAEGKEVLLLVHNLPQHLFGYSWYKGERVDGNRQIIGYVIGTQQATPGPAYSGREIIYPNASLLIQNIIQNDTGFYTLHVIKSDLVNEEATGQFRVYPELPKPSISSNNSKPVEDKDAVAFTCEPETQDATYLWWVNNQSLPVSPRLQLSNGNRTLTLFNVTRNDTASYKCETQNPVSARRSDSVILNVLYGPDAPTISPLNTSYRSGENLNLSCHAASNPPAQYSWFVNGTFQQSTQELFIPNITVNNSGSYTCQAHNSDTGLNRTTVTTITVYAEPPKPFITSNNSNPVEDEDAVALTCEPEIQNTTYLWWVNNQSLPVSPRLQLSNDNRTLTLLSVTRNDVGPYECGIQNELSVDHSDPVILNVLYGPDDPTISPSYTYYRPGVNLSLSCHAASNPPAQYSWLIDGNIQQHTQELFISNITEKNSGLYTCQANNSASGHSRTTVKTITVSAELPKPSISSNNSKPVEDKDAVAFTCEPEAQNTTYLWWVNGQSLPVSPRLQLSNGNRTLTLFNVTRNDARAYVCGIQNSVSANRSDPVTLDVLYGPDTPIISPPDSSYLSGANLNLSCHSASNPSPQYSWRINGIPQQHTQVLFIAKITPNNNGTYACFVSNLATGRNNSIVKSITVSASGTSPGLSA

T2: Human CEACAM5 I80V V83A I112V I113T (human, UniProt P06731 35-685, limits assumed)
T2 chain: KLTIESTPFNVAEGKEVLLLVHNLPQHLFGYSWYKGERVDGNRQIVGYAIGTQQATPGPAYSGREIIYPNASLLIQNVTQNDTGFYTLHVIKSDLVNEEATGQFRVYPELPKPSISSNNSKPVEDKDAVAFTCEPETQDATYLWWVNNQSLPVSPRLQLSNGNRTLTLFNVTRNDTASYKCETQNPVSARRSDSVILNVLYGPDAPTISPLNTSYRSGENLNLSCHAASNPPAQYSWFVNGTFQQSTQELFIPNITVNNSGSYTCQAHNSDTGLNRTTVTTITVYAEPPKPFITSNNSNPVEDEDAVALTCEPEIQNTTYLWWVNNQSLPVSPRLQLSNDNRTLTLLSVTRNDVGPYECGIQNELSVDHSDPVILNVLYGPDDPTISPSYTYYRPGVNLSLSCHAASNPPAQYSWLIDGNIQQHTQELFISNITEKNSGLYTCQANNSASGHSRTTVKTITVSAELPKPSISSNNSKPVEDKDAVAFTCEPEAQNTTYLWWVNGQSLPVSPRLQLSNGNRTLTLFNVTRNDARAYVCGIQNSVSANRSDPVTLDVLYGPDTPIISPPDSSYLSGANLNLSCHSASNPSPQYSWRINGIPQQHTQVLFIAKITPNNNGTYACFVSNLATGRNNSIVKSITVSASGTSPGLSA

T3: Human CEACAM5 I112V (human, UniProt P06731 35-685, limits assumed)
T3 sequence: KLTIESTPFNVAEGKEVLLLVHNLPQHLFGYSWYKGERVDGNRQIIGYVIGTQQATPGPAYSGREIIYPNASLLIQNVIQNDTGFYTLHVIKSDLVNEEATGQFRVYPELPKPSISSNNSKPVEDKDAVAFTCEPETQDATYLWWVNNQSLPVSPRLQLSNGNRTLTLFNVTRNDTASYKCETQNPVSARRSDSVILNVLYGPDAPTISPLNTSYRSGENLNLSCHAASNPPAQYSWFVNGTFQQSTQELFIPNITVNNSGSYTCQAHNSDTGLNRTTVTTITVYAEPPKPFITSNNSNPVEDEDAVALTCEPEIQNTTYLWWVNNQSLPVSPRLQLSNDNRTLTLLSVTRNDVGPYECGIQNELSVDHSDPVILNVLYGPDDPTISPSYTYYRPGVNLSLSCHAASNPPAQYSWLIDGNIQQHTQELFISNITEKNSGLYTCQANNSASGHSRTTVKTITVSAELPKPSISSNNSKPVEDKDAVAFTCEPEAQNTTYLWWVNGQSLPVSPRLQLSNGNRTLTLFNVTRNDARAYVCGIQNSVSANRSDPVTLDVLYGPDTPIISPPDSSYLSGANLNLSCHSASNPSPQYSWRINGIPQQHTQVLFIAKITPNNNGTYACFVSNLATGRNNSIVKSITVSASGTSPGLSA

T4: Human CEACAM5 I113T (human, UniProt P06731 35-685, limits assumed)
T4 sequence: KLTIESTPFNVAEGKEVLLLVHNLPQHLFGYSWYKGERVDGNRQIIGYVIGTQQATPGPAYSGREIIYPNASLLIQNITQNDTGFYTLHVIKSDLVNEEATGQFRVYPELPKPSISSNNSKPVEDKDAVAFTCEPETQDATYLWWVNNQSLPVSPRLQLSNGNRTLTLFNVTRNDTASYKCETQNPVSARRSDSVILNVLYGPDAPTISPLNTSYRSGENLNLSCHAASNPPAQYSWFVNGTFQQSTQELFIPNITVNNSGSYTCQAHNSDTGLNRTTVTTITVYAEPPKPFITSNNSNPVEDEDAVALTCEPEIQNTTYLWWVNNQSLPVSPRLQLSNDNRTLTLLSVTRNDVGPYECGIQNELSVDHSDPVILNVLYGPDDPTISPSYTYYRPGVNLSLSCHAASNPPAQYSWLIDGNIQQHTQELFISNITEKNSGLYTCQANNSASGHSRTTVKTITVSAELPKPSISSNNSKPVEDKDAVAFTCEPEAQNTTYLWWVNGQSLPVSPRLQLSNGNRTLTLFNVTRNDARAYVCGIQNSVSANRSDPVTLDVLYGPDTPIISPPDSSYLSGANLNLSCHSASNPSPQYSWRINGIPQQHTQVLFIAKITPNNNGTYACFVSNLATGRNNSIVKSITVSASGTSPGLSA

B1: AB0466 F3' CEACAM5 TriNKET (bispecific antibody, human IgG1, kappa)
chain: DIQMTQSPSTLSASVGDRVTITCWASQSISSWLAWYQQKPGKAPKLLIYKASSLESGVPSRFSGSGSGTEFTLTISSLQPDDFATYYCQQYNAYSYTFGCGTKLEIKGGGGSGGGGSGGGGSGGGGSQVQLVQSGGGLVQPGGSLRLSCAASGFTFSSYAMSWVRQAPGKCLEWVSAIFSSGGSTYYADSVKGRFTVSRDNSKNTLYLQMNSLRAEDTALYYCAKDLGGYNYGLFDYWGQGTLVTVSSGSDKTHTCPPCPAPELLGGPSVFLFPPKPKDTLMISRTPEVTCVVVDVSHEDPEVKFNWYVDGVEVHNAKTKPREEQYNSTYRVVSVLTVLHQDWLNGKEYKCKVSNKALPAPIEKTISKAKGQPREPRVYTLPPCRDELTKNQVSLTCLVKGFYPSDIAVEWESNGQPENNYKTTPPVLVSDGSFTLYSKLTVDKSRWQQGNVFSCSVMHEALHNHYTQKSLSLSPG
heavy: EVQLVESGGGLVKPGGSLRLSCAASGFTFSSYSMNWVRQAPGKGLEWVSSISSSSSYIYYADSVKGRFTISRDNAKNSLYLQMNSLRAEDTAVYYCARGAPIGAAAGWFDPWGQGTLVTVSSASTKGPSVFPLAPSSKSTSGGTAALGCLVKDYFPEPVTVSWNSGALTSGVHTFPAVLQSSGLYSLSSVVTVPSSSLGTQTYICNVNHKPSNTKVDKKVEPKSCDKTHTCPPCPAPELLGGPSVFLFPPKPKDTLMISRTPEVTCVVVDVSHEDPEVKFNWYVDGVEVHNAKTKPREEQYNSTYRVVSVLTVLHQDWLNGKEYKCKVSNKALPAPIEKTISKAKGQPREPQVCTLPPSRDELTENQVSLTCLVKGFYPSDIAVEWESNGQPENNYKTTPPVLDSDGSFFLYSWLTVDKSRWQQGNVFSCSVMHEALHNHYTQKSLSLSPG
light: DIQMTQSPSSVSASVGDRVTITCRASQGISSWLAWYQQKPGKAPKLLIYAASSLQSGVPSRFSGSGSGTDFTLTISSLQPEDFATYYCQQGVSFPRTFGGGTKVEIKRTVAAPSVFIFPPSDEQLKSGTASVVCLLNNFYPREAKVQWKVDNALQSGNSQESVTEQDSKDSTYSLSSTLTLSKADYEKHKVYACEVTHQGLSSPVTKSFNRGEC
B2: AB0621 F3' CEACAM5 TriNKET (bispecific antibody, human IgG1, kappa)
chain: DIVMTQSPDSLAVSLGERATINCKSSHSLLYGNFQNNYLAWYQQKPGQPPKLLIYWASTRESGVPDRFSGSGSGTDFTLTISSLQAEDVAVYYCQQYYSYPYTFGCGTKLEIKGGGGSGGGGSGGGGSGGGGSQVQLVQSGAEVKKPGASVKVSCKASGYTFTAYTIHWVRQAPGQCLEWMGYINPSSGYTEYNQKFKDRTTLTADTSISTAYMELSRLRSDDTAVYYCTREGGLLWFDYWGQGTLVTVSSGSDKTHTCPPCPAPELLGGPSVFLFPPKPKDTLMISRTPEVTCVVVDVSHEDPEVKFNWYVDGVEVHNAKTKPREEQYNSTYRVVSVLTVLHQDWLNGKEYKCKVSNKALPAPIEKTISKAKGQPREPRVYTLPPCRDELTKNQVSLTCLVKGFYPSDIAVEWESNGQPENNYKTTPPVLVSDGSFTLYSKLTVDKSRWQQGNVFSCSVMHEALHNHYTQKSLSLSPG
heavy: EVQLVESGGGLVKPGGSLRLSCAASGFTFSSYSMNWVRQAPGKGLEWVSSISSSSSYIYYADSVKGRFTISRDNAKNSLYLQMNSLRAEDTAVYYCARGAPIGAAAGWFDPWGQGTLVTVSSASTKGPSVFPLAPSSKSTSGGTAALGCLVKDYFPEPVTVSWNSGALTSGVHTFPAVLQSSGLYSLSSVVTVPSSSLGTQTYICNVNHKPSNTKVDKKVEPKSCDKTHTCPPCPAPELLGGPSVFLFPPKPKDTLMISRTPEVTCVVVDVSHEDPEVKFNWYVDGVEVHNAKTKPREEQYNSTYRVVSVLTVLHQDWLNGKEYKCKVSNKALPAPIEKTISKAKGQPREPQVCTLPPSRDELTENQVSLTCLVKGFYPSDIAVEWESNGQPENNYKTTPPVLDSDGSFFLYSWLTVDKSRWQQGNVFSCSVMHEALHNHYTQKSLSLSPG
light: DIQMTQSPSSVSASVGDRVTITCRASQGISSWLAWYQQKPGKAPKLLIYAASSLQSGVPSRFSGSGSGTDFTLTISSLQPEDFATYYCQQGVSFPRTFGGGTKVEIKRTVAAPSVFIFPPSDEQLKSGTASVVCLLNNFYPREAKVQWKVDNALQSGNSQESVTEQDSKDSTYSLSSTLTLSKADYEKHKVYACEVTHQGLSSPVTKSFNRGEC
B3: AB0411 F3' CEACAM5 TriNKET (bispecific antibody, human IgG1, kappa)
chain: DIQLTQSPATLSVSPGERATLSCRASQSVSSSYLAWYQQKPGQAPRLLIYGASSRATGIPDRFSGSGSGTDFTLTISRLEPEDFAVYYCQQYNNWPLTFGCGTKVEIKGGGGSGGGGSGGGGSGGGGSQVQLVQSGGGLVQPGGSLRLSCAASGFTFTSYAMSWVRQAPGKCLEWVSAISGTGDSTFYADSVKGRFTFSRDNSKNTLYLQMNSLRAEDTAVYYCAKDLGWLQYGLFDYWGQGTLVTVSSGSDKTHTCPPCPAPELLGGPSVFLFPPKPKDTLMISRTPEVTCVVVDVSHEDPEVKFNWYVDGVEVHNAKTKPREEQYNSTYRVVSVLTVLHQDWLNGKEYKCKVSNKALPAPIEKTISKAKGQPREPRVYTLPPCRDELTKNQVSLTCLVKGFYPSDIAVEWESNGQPENNYKTTPPVLVSDGSFTLYSKLTVDKSRWQQGNVFSCSVMHEALHNHYTQKSLSLSPG
heavy: EVQLVESGGGLVKPGGSLRLSCAASGFTFSSYSMNWVRQAPGKGLEWVSSISSSSSYIYYADSVKGRFTISRDNAKNSLYLQMNSLRAEDTAVYYCARGAPIGAAAGWFDPWGQGTLVTVSSASTKGPSVFPLAPSSKSTSGGTAALGCLVKDYFPEPVTVSWNSGALTSGVHTFPAVLQSSGLYSLSSVVTVPSSSLGTQTYICNVNHKPSNTKVDKKVEPKSCDKTHTCPPCPAPELLGGPSVFLFPPKPKDTLMISRTPEVTCVVVDVSHEDPEVKFNWYVDGVEVHNAKTKPREEQYNSTYRVVSVLTVLHQDWLNGKEYKCKVSNKALPAPIEKTISKAKGQPREPQVCTLPPSRDELTENQVSLTCLVKGFYPSDIAVEWESNGQPENNYKTTPPVLDSDGSFFLYSWLTVDKSRWQQGNVFSCSVMHEALHNHYTQKSLSLSPG
light: DIQMTQSPSSVSASVGDRVTITCRASQGISSWLAWYQQKPGKAPKLLIYAASSLQSGVPSRFSGSGSGTDFTLTISSLQPEDFATYYCQQGVSFPRTFGGGTKVEIKRTVAAPSVFIFPPSDEQLKSGTASVVCLLNNFYPREAKVQWKVDNALQSGNSQESVTEQDSKDSTYSLSSTLTLSKADYEKHKVYACEVTHQGLSSPVTKSFNRGEC

Columns and labels:
[1] = biological target: T1, human CEACAM5 on cells; assay: cell-based or functional assay
[2] = biological target: T2, Human CEACAM5 I80V V83A I112V I113T; assay: SPR, 37C, pH 7.4; reference E398
[3] = biological target: T3, Human CEACAM5 I112V; assay: SPR, 37C, pH 7.4; reference E398
[4] = biological target: T4, Human CEACAM5 I113T; assay: SPR, 37C, pH 7.4; reference E398

| Binder | EC50 (nM), NK lysis of HPAF-II (DELFIA) [1] | EC50 (nM), NK lysis of LS-174T (DELFIA) [1] | EC50 (nM), NK lysis of SK-CO-1 (DELFIA) [1] | EC50 (nM), NK lysis of ZR-75-30 (DELFIA) [1] | Max Killing (%), HPAF-II [1] | Max Killing (%), LS-174T [1] | Max Killing (%), SK-CO-1 [1] | Max Killing (%), ZR-75-30 [1] | KD/KD(Ref) [2] | KD/KD(Ref) [3] | KD/KD(Ref) [4] |
| --- | --- | --- | --- | --- | --- | --- | --- | --- | --- | --- | --- |
| B1 | 0.23 nM | 0.46 nM | 9.07 nM | 0.8 nM | 16.5% | 20.5% | 75.1% | 21.4% | 8.5 fold | 1.6 fold | 1.2 fold |
| B2 | 0.72 nM | 1.87 nM | 1.02 nM | 1.58 nM | 29.8% | 42.6% | 80.9% | 29.8% | 1.3 fold | 2.3 fold | 1.7 fold |
| B3 |  | 0.32 nM | 4.55 nM | 0.17 nM | 28.3% | 28.9% | 84% | 25.9% | 3.9 fold | 1.2 fold | 1.1 fold |
